For assay [1], the target named is human GITR on 293F‐hGITR cells (human) (UniProt Q9Y5U5).
In assay [2] the target is hGITR ECD hFc (human) (UniProt Q9Y5U5). Put plainly: SPR; Biacore T200; hGITR ECD hFc immobilised on a Series S CM5 chip; antibody 0, 3.125, 6.25, 12.5, 25 and 50 nM; association 180 s, dissociation 600 s. For orientation: Surface plasmon resonance follows binding to a sensor surface in real time, without labels.
The target of assay [3] is cynoGITR on 293F‐cynoGITR cells (cynomolgus). Put plainly: flow cytometry on cells; 293F‐hGITR or 293F‐cynoGITR cells incubated with antibodies at 4 °C for 1 h, fluorescent anti-rat/human secondary antibody; EC50 of MFI curve.
Assay [4] deals with human GITR on 293F‐hGITR cells (human) (UniProt Q9Y5U5). The description is as above.
Assay [5] has as its target cynoGITR ECD hFc (cynomolgus). Put plainly: ELISA; indirect ELISA; antigen hFc fusion protein coated on 96-well plates (1 μg·mL^−1 overnight at 4 °C in Fig. 3B), antibody added, detected with anti-rat IgG/hIgG-peroxidase antibody. (ELISA stands for enzyme-linked immunosorbent assay.)
In assay [6] the target is hGITR ECD hFc (human) (UniProt Q9Y5U5). The description is as above.
For assay [7] the target is unchanged. Put plainly: SPR.

pEC50, pKd: −log10 of the molar value.

A word on the pKd: it is the Kd on a negative log10 scale, so that one unit is a factor of ten. A high value points to a small Kd. Usually pEC50 stands for −log10 of the EC50, conventionally taken in molar units. A high value points to a low EC50. In general, koff refers to a measure of how fast the partners let go of each other. A higher koff goes with fast dissociation.

Chain of human GITR on 293F‐hGITR cells (human) (Q9Y5U5 26-241): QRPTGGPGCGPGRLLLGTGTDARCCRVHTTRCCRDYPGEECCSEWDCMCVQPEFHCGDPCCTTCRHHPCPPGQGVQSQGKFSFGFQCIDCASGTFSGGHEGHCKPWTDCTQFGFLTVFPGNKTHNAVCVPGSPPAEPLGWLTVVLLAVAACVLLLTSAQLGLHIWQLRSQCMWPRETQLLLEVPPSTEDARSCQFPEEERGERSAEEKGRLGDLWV
Chain of hGITR ECD hFc (human) (Q9Y5U5 other isoform, or with tags, fused parts or gaps): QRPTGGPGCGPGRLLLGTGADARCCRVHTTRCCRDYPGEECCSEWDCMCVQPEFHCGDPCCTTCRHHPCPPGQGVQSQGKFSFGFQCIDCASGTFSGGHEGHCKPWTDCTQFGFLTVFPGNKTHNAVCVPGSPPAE

Regarding Tab6C8 (antibody), in assay [1], the NF‐ĸB luciferase reporter assay, Crosslinking, EC50 was found to be 0.336 nM; the NF‐ĸB luciferase reporter assay, Crosslinking, Top ratio came to 32 fold; the NF‐ĸB luciferase reporter assay, No crosslinking, EC50 came out at 0.829 nM; the NF‐ĸB luciferase reporter assay, No crosslinking, Top ratio came to 14 fold. Besides, in assay [1], the T‐cell activation (IFN‐γ secretion), Donor#1, EC50 was found to be 0.0106 nM; the T‐cell activation (IFN‐γ secretion), Donor#2, EC50 is 0.00559 nM; the T‐cell activation (IFN‐γ secretion), Donor#3, EC50 amounted to 0.00681 nM. The substance also had a pKd in assay [2] of 8.42. The substance also gave a pEC50 in assay [3] of 11.15. In assay [4], the pEC50 was 10.57. This substance also gave a pEC50 in assay [5] of 8.95. In assay [6], this substance gave a pEC50 of 9.02.

Regarding Tab6C8, the koff in assay [7] worked out at 0.0044 s⁻¹.

Values taken from article PMC9340783.
